Starred links: 1 amine or outer side, 2 acyl side, 3 side chain; linkers in the order of their positions; H or OH if unused. Non-standard residues stand in square brackets, D forms with d. No end group written: not given here. *: point of attachment. Phe(4-CH2SO3H) = N[C@@H](Cc1ccc(CS(=O)(=O)O)cc1)C(=O)O; sY = N[C@@H](Cc1ccc(OS(=O)(=O)O)cc1)C(=O)O; C18 diacid = O=C(O)CCCCCCCCCCCCCCCCC(=O)*; γGlu = O=C(O)[C@H](CCC(=O)[*:2])N[*:1]; Met(O2) = CS(=O)(=O)CC[C@H](N)C(=O)O; NMeF = CN[C@@H](Cc1ccccc1)C(=O)O; dNMeD = CN[C@H](CC(=O)O)C(=O)O; Nle = CCCC[C@H](N)C(=O)O; AEEA = NCCOCCOCC(=O)O
T1: human cholecystokinin-1 receptor (human), P32238
T1 chain: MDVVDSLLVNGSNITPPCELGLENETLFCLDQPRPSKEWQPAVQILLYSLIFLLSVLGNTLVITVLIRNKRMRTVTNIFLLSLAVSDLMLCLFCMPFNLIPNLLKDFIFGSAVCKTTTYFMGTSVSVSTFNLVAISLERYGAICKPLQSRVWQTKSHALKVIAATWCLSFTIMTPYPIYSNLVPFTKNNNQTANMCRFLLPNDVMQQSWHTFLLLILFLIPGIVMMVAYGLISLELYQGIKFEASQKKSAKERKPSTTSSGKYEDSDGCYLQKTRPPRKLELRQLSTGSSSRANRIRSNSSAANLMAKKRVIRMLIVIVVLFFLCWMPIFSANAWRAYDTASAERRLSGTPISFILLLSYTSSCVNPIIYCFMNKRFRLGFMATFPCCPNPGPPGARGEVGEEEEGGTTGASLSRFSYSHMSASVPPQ

T2: human cholecystokinin-2 receptor (human, UniProt P32239 1-447)
T2 sequence (looked up): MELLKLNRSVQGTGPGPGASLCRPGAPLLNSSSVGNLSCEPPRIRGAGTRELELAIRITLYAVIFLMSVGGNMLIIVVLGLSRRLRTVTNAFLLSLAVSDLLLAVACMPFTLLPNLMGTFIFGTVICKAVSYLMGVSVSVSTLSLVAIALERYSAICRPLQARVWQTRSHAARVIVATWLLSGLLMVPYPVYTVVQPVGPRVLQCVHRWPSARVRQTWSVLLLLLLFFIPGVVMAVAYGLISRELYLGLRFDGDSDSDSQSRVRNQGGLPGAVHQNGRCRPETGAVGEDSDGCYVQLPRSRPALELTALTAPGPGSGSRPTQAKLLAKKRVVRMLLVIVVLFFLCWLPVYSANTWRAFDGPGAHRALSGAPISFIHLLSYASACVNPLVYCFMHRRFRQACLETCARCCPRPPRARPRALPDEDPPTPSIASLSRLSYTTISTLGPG

T3: human cholecystokinin-2 receptor (human), P32239
T3 chain: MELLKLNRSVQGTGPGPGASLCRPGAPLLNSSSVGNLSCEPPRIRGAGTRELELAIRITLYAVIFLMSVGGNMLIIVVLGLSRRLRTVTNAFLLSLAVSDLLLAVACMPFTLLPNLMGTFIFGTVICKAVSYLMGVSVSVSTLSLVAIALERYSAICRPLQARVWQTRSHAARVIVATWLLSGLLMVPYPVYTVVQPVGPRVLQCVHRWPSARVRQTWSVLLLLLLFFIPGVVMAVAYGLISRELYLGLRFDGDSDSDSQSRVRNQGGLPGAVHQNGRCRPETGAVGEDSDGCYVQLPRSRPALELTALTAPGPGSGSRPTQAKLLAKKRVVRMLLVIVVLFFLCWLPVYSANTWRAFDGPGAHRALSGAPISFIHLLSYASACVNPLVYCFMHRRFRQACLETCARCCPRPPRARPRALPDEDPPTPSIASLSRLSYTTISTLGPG

T4: human cholecystokinin-1 receptor (human, UniProt P32238 1-428)
T4 sequence (looked up): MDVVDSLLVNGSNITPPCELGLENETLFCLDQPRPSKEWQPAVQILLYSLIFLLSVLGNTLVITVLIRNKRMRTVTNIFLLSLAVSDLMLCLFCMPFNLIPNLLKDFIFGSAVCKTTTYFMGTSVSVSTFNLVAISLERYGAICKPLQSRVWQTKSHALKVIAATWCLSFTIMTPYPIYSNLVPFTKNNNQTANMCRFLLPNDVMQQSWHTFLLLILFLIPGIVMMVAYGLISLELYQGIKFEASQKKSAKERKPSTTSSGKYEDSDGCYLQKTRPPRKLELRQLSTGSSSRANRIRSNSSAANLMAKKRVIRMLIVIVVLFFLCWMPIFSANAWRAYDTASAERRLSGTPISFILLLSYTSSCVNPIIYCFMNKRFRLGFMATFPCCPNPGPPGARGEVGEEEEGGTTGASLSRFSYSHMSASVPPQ


What was measured:
[1] = biological target: T1, human cholecystokinin-1 receptor …; experiment: cell-based or functional assay
[2] = biological target: T2, human cholecystokinin-2 receptor; experiment: cell-based or functional assay
[3] = biological target: T1, human cholecystokinin-1 receptor …; experiment: SPA competition vs [125I]-CCK-8s, membranes
[4] = biological target: T3, human cholecystokinin-2 receptor …; experiment: cell-based or functional assay
[5] = biological target: T4, human cholecystokinin-1 receptor; experiment: cell-based or functional assay
[6] = biological target: T4, human cholecystokinin-1 receptor; experiment: SPA competition vs [125I]-CCK-8s, membranes
Procedure: (§1) CCK receptor binding assays were performed in 96-well Optiplates (Cat #6005290, PerkinElmer, Waltham, Mass., USA) in a total volume of 200 μl per well.
(§2) The plates were sealed and incubated in the dark at +22° C. for 2 hours on a IKA MTS plate shaker (IKA-Werke D-79219 Staufen) set at 300 rpm and thereafter centrifuged at 1500 rpm for 10 minutes in a Heraeus Multifuge 3s centrifuge. SPA bead light emission was measured in a TopCount NXT (PerkinElmer) for 2 min/well after a delay of 60 min.

[7] = biological target: T2, human cholecystokinin-2 receptor; experiment: SPA competition vs [125I]-CCK-8s, membranes
Procedure: as §1, §2

| Binder | EC50 (CCK-1R) [1] [nM] | EC50 (CCK-2R) [2] [nM] | IC50 [3] [nM] | EC50 (CCK-2R) [4] [nM] | EC50 (CCK-1R) [5] [nM] | IC50 [6] [nM] | IC50 [7] [nM] |
| --- | --- | --- | --- | --- | --- | --- | --- |
| D[sY]LGWL[DMeAsp][NMeF]-NH2 [Asp-sTyr-Leu-Gly-Trp-Leu-DMeAsp-MePhe-amide] | 0.25 | > 1000 | 0.042 | – | – | – | – |
| D[sY]LGWP[DMeAsp][NMeF]-NH2 [Asp-sTyr-Leu-Gly-Trp-Pro-DMeAsp-MePhe-amide] | 0.34 | > 1000 | 0.11 | – | – | – | – |
| {C18 diacid-γGlu-AEEA-AEEA}-D[sY]LGWA[DMeAsp][NMeF]-NH2 | 0.17 | – | 0.65 | 880 | – | – | – |
| D[sY]LGWA[DMeAsp][NMeF]-NH2 [Asp-sTyr-Leu-Gly-Trp-Ala-DMeAsp-MePhe-amide] | 0.22 | – | 0.53 | > 1000 | – | – | – |
| {C18 diacid-γGlu-AEEA-AEEA}-[sY][Nle]GW[Nle][dNMeD][NMeF]-NH2 (SMILES CCCC[C@H](NC(=O)[C@H](Cc1ccc(OS(=O)(=O)O)cc1)NC(=O)COCCOCCNC(=O)COCCOCCNC(=O)CC[C@H](NC(=O)CCCCCCCCCCCCCCCCC(=O)O)C(=O)O)C(=O)NCC(=O)N[C@@H](Cc1c[nH]c2ccccc12)C(=O)N[C@@H](CCCC)C(=O)N(C)[C@H](CC(=O)O)C(=O)N(C)[C@@H](Cc1ccccc1)C(N)=O, X = Nle or Nal) | – | 440 | – | – | 0.37 | 0.039 | 6500 |
| {C18 diacid-γGlu-AEEA-AEEA}-D[sY][Nle]GW[Nle][dNMeD]W-NH2 (SMILES CCCC[C@H](NC(=O)[C@H](Cc1ccc(OS(=O)(=O)O)cc1)NC(=O)[C@H](CC(=O)O)NC(=O)COCCOCCNC(=O)COCCOCCNC(=O)CC[C@H](NC(=O)CCCCCCCCCCCCCCCCC(=O)O)C(=O)O)C(=O)NCC(=O)N[C@@H](Cc1c[nH]c2ccccc12)C(=O)N[C@@H](CCCC)C(=O)N(C)[C@H](CC(=O)O)C(=O)N[C@@H](Cc1c[nH]c2ccccc12)C(N)=O, X = Nle or Nal) | – | > 1000 | – | – | 0.24 | 0.91 | 3000 |
| {C18 diacid-γGlu-AEEA-AEEA}-K[AEEA]D[Phe(4-CH2SO3H)][Nle]GW[Nle][dNMeD][NMeF]-NH2 (X = Nle or Nal) | – | – | – | – | – | 0.081 | 7400 |
| D[sY]LGWV[DMeAsp][NMeF]-NH2 [Asp-sTyr-Leu-Gly-Trp-Val-DMeAsp-MePhe-amide] | 0.34 | > 1000 | 0.62 | – | – | – | – |
| [sY][Nle]GW[Nle][dNMeD][NMeF]-NH2 (N-terminus assumed; SMILES CCCC[C@H](NC(=O)[C@@H](N)Cc1ccc(OS(=O)(=O)O)cc1)C(=O)NCC(=O)N[C@@H](Cc1c[nH]c2ccccc12)C(=O)N[C@@H](CCCC)C(=O)N(C)[C@H](CC(=O)O)C(=O)N(C)[C@@H](Cc1ccccc1)C(N)=O, X = Nle or Nal) [sTyr-Nle-Gly-Trp-Nle-DMeAsp-MePhe-amide] | – | > 1000 | – | – | 0.33 | 0.06 | – |
| D[sY]LGWQ[DMeAsp][NMeF]-NH2 [Asp-sTyr-Leu-Gly-Trp-Gln-DMeAsp-MePhe-amide] | 0.15 | – | 0.075 | > 1000 | – | – | – |
| {C18 diacid-γGlu-AEEA-AEEA}-D[sY]AGW[Nle][dNMeD][NMeF]-NH2 (SMILES CCCC[C@H](NC(=O)[C@H](Cc1c[nH]c2ccccc12)NC(=O)CNC(=O)[C@H](C)NC(=O)[C@H](Cc1ccc(OS(=O)(=O)O)cc1)NC(=O)[C@H](CC(=O)O)NC(=O)COCCOCCNC(=O)COCCOCCNC(=O)CC[C@H](NC(=O)CCCCCCCCCCCCCCCCC(=O)O)C(=O)O)C(=O)N(C)[C@H](CC(=O)O)C(=O)N(C)[C@@H](Cc1ccccc1)C(N)=O, X = Nle or Nal) | – | 97 | – | – | 0.22 | 0.068 | 280 |
| {C18 diacid-γGlu-AEEA-AEEA}-D[sY]KGW[Nle][dNMeD][NMeF]-NH2 (X = Nle or Nal) | – | 310 | – | – | 0.36 | 0.099 | – |
| D[sY]SGW[Nle][dNMeD][NMeF]-NH2 (N-terminus assumed; SMILES CCCC[C@H](NC(=O)[C@H](Cc1c[nH]c2ccccc12)NC(=O)CNC(=O)[C@H](CO)NC(=O)[C@H](Cc1ccc(OS(=O)(=O)O)cc1)NC(=O)[C@@H](N)CC(=O)O)C(=O)N(C)[C@H](CC(=O)O)C(=O)N(C)[C@@H](Cc1ccccc1)C(N)=O, X = Nle or Nal) [Asp-sTyr-Ser-Gly-Trp-Nle-DMeAsp-MePhe-amide] | – | > 1000 | – | – | 0.19 | 0.035 | 3600 |
| D[sY]KGW[Nle][dNMeD][NMeF]-NH2 (N-terminus assumed; SMILES CCCC[C@H](NC(=O)[C@H](Cc1c[nH]c2ccccc12)NC(=O)CNC(=O)[C@H](CCCCN)NC(=O)[C@H](Cc1ccc(OS(=O)(=O)O)cc1)NC(=O)[C@@H](N)CC(=O)O)C(=O)N(C)[C@H](CC(=O)O)C(=O)N(C)[C@@H](Cc1ccccc1)C(N)=O, X = Nle or Nal) [Asp-sTyr-Lys-Gly-Trp-Nle-DMeAsp-MePhe-amide] | – | > 1000 | – | – | 0.26 | 0.03 | – |
| D[sY]AGW[Nle][dNMeD][NMeF]-NH2 (N-terminus assumed; SMILES CCCC[C@H](NC(=O)[C@H](Cc1c[nH]c2ccccc12)NC(=O)CNC(=O)[C@H](C)NC(=O)[C@H](Cc1ccc(OS(=O)(=O)O)cc1)NC(=O)[C@@H](N)CC(=O)O)C(=O)N(C)[C@H](CC(=O)O)C(=O)N(C)[C@@H](Cc1ccccc1)C(N)=O, X = Nle or Nal) [Asp-sTyr-Ala-Gly-Trp-Nle-DMeAsp-MePhe-amide] | – | > 1000 | – | – | 0.16 | 0.055 | – |
| {C18 diacid-γGlu-AEEA-AEEA}-D[sY]SGW[Nle][dNMeD][NMeF]-NH2 (SMILES CCCC[C@H](NC(=O)[C@H](Cc1c[nH]c2ccccc12)NC(=O)CNC(=O)[C@H](CO)NC(=O)[C@H](Cc1ccc(OS(=O)(=O)O)cc1)NC(=O)[C@H](CC(=O)O)NC(=O)COCCOCCNC(=O)COCCOCCNC(=O)CC[C@H](NC(=O)CCCCCCCCCCCCCCCCC(=O)O)C(=O)O)C(=O)N(C)[C@H](CC(=O)O)C(=O)N(C)[C@@H](Cc1ccccc1)C(N)=O, X = Nle or Nal) | – | 940 | – | – | – | 0.058 | 4700 |
| {C18 diacid-γGlu-AEEA-AEEA}-D[sY]FGW[Nle][dNMeD][NMeF]-NH2 (SMILES CCCC[C@H](NC(=O)[C@H](Cc1c[nH]c2ccccc12)NC(=O)CNC(=O)[C@H](Cc1ccccc1)NC(=O)[C@H](Cc1ccc(OS(=O)(=O)O)cc1)NC(=O)[C@H](CC(=O)O)NC(=O)COCCOCCNC(=O)COCCOCCNC(=O)CC[C@H](NC(=O)CCCCCCCCCCCCCCCCC(=O)O)C(=O)O)C(=O)N(C)[C@H](CC(=O)O)C(=O)N(C)[C@@H](Cc1ccccc1)C(N)=O, X = Nle or Nal) | – | 390 | – | – | 0.41 | 0.065 | 5600 |
| {C18 diacid-γGlu-AEEA-AEEA}-D[sY]LGW[Met(O2)][dNMeD][NMeF]-NH2 | – | > 1000 | – | – | 0.14 | 0.64 | – |
| {C18 diacid-γGlu-AEEA-AEEA}-E[sY]LGWQ[dNMeD][NMeF]-NH2 | – | > 1000 | – | – | 0.22 | 0.097 | – |

Reference: patent publication US20170008928A1, “NOVEL PEPTIDES AND PEPTIDE DERIVATIVES AND USES THEREOF” (Novo Nordisk A/S, priority 2015, published 2017)
